Measurements reported in US20120064547A1 (PROBIODRUG, published 2012).
Where a chain is given by its changes, count along the chain named. Where no end group is shown, it is not given here. Side-chain parts run from the residue outwards. [ ]: non-standard residue; d: D form. SMPH = maleimide crosslinker coupling C-terminal Cys to BSA; pGlu = O=C1CC[C@@H](C(=O)O)N1

How the values were obtained:
[1] = molecular target: T1, Aβ N3pE-40 peptide (N-terminal Glu (position 3 of Aβ) cyclized to pyroglutamate); assay: SPR (Biacore, CM5 chip with coupled Aβ N3pE-40), overlay of hybridoma supernatants. The sheet carries the label Figure 6, but its content is that of the legend of FIG. 5
T1 construct: Synthetic peptide; also called AβpE3-40; amyloid β N3pE-40

[2] = molecular target: T2, PepSpot peptide No. 7 FRHDSGYEVHHQK; assay: PepSpot peptide membrane
T2 construct: Spotted on a PepSpot membrane; also called spot number 7
T2 peptide: FRHDSGYEVHHQK

[3] = molecular target: T3, PepSpot peptide No. 6 pEFRHDSGYEVHHQ; assay: PepSpot peptide membrane
T3 construct: Spotted on a PepSpot membrane; also called spot number 6; the specific Aβ N3pE-x spot
T3 peptide: [pGlu]FRHDSGYEVHHQ

[4] = molecular target: T4, PepSpot peptide No. 5 EFRHDSGYEVHHQ; assay: PepSpot peptide membrane
T4 construct: Spotted on a PepSpot membrane; also called spot number 5
T4 peptide: EFRHDSGYEVHHQ

[5] = molecular target: N11E-BSA; assay: IgG ELISA, hybridoma supernatant on peptide-BSA coat
[6] = molecular target: N3E-BSA; assay: as above
[7] = molecular target: N11pE-BSA; assay: as above
[8] = molecular target: T5, BSA-pGlu-6166 peptide (pGlu-FRHDSGC conjugated to bovine serum albumin); assay: as above
T5 construct: also called N3pE-BSA
T5 peptide: [pGlu]FRHDSGC([SMPH-BSA])

[9] = molecular target: isoDAE-BSA; assay: as above
[10] = molecular target: T6, Aβ 4-40; assay: N3pE sandwich ELISA (4G8 capture, 6-1-6 detection), peptide at 25 pg/ml
T6 construct: No entry of its own

[11] = molecular target: T7, Aβ pE11-40 (N-terminal Glu (position 11 of Aβ) cyclized to pyroglutamate); assay: as above
T7 construct: No entry of its own
T7 peptide: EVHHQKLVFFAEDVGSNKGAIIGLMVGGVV

[12] = molecular target: Aβ 1-42; assay: as above
[13] = molecular target: T1, Aβ N3pE-40 peptide; assay: N3pE sandwich ELISA (4G8 capture, 6-1-6 detection), 3.125 pg/ml peptide
[14] = molecular target: T6, Aβ 4-40; assay: N3pE sandwich ELISA (4G8 capture, 6-1-6 detection), peptide at 12.5 pg/ml
[15] = molecular target: T7, Aβ pE11-40; assay: as above
[16] = molecular target: Aβ 1-42; assay: as above
[17] = molecular target: T6, Aβ 4-40; assay: N3pE sandwich ELISA (4G8 capture, 6-1-6 detection), peptide at 400 pg/ml
[18] = molecular target: T7, Aβ pE11-40; assay: as above
[19] = molecular target: Aβ 1-42; assay: as above
[20] = molecular target: T1, Aβ N3pE-40 peptide; assay: DotBlot
[21] = molecular target: T1, Aβ N3pE-40 peptide; assay: Biacore, peptide on CM5 chip, hybridoma supernatants
[22] = molecular target: T6, Aβ 4-40; assay: N3pE sandwich ELISA (4G8 capture, 6-1-6 detection), peptide at 200 pg/ml
[23] = molecular target: T7, Aβ pE11-40; assay: as above
[24] = molecular target: Aβ 1-42; assay: as above
[25] = molecular target: T8, Gonadoliberin (human, UniProt P01148 24-33, N-terminal pyroglutamate (pGlu peptide)); assay: SPR (Biacore 3000), peptide on CM5 chip, antibody 25 µg/ml
T8 construct: Whole peptide or N-terminal region
T8 peptide (looked up): QHWSYGLRPG

[26] = molecular target: T9, Big Gastrin (human, UniProt P01350 59-92, limits assumed, N-terminal pyroglutamate (pGlu peptide)); assay: as above
T9 construct: Whole peptide or N-terminal region
T9 peptide (looked up): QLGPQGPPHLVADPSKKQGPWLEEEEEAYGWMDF

[27] = molecular target: T10, MCP-2 (human, UniProt P80075 24-99, limits assumed, N-terminal pyroglutamate (pGlu peptide)); assay: as above
T10 construct: Whole peptide or N-terminal region
T10 sequence (peptide, looked up): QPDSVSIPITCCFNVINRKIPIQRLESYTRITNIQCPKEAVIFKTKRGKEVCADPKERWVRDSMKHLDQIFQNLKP

[28] = molecular target: T11, Neurotensin (human, UniProt P30990 151-163, N-terminal pyroglutamate (pGlu peptide)); assay: as above
T11 construct: Whole peptide or N-terminal region

[29] = molecular target: T12, Orexin A (human, UniProt O43612 34-66, limits assumed, N-terminal pyroglutamate (pGlu peptide)); assay: as above
T12 construct: Whole peptide or N-terminal region
T12 peptide (looked up): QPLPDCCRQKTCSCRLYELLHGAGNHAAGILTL

[30] = molecular target: T13, Collagen 1 (human); assay: as above
T13 construct: Whole protein or N-terminal region, and which collagen chain

[31] = molecular target: MCP-1 (human, UniProt P13500 24-99, limits assumed, N-terminal pyroglutamate (pGlu peptide)); assay: as above
[32] = molecular target: T6, Aβ 4-40; assay: N3pE sandwich ELISA (4G8 capture, 6-1-6 detection), peptide at 100 pg/ml
[33] = molecular target: T7, Aβ pE11-40; assay: as above
[34] = molecular target: Aβ 1-42; assay: as above
[35] = molecular target: T6, Aβ 4-40; assay: N3pE sandwich ELISA (4G8 capture, 6-1-6 detection), peptide at 800 pg/ml
[36] = molecular target: T7, Aβ pE11-40; assay: as above
[37] = molecular target: Aβ 1-42; assay: as above
[38] = molecular target: T1, Aβ N3pE-40 peptide; assay: SPR Biacore 3000, AβpE3-40 on CM5 chip, antibody 1-100 nM, bivalent analyte model
[39] = molecular target: T6, Aβ 4-40; assay: N3pE sandwich ELISA (4G8 capture, 6-1-6 detection), peptide at 50 pg/ml
[40] = molecular target: T7, Aβ pE11-40; assay: as above
[41] = molecular target: Aβ 1-42; assay: as above
[42] = molecular target: T1, Aβ N3pE-40 peptide; assay: SPR Biacore 3000, AβpE3-40 on CM5 chip, bivalent analyte model

B1: Aβ 5-5-6 (monoclonal antibody of hybridoma cell line 5-5-6, DSM ACC 2923) (antibody, V domains shown)
VH: EVQLQQSGPELVKPGASMKISCKASGYSFTGYTMNWVKQSHGKNLEWIGLINPYSGVTRYNQKFKGKATLIVDKSSSTAYMELLSLTSEDSAVYYCTREAKREWDETYWGQGTLVTVSA
VL: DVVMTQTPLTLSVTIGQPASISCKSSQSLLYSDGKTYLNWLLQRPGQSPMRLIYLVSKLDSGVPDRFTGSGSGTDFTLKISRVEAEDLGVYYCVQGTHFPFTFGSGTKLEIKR
notes: Mouse hybridoma IgG; The entries as printed begin with a leader and end with the first residues of the constant region; Heavy chain amplified with primer MHCG1, light chain with MKC; Tested as hybridoma culture supernatant; also called clone 5-5-6; antibody 5-5-6
[1]
  binding result: binds
[2]
  binding result: binds
[3]
  binding result: binds
[4]
  binding result: binds
[5]
  signal in ELISA (OD): 0.004 OD 405 nm
[6]
  signal in ELISA (OD): 0.126 OD 405 nm
[7]
  signal in ELISA (OD): 0.006 OD 405 nm
[8]
  signal in ELISA (OD): 1.65 OD 405 nm
[9]
  signal in ELISA (OD): 0.015 OD 405 nm

B2: Aβ 6-1-6 (monoclonal antibody of hybridoma cell line 6-1-6, DSM ACC 2924) (antibody, V domains shown)
VH: B1 VH with S55N
VL: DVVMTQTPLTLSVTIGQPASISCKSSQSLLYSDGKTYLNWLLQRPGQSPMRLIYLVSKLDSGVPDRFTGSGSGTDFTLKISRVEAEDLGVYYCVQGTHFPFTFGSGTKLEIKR
notes: Mouse hybridoma IgG; The entries as printed begin with a leader and end with the first residues of the constant region; Heavy chain amplified with primer MHCG1, light chain with MKC; also called clone 6-1-6; N3pE antibody clone 6-1-6
[10]
  absorbance (450 nm corrected by 540 nm): 0.044 absorbance
[11]
  absorbance (450 nm corrected by 540 nm): 0.048 absorbance
[12]
  absorbance (450 nm corrected by 540 nm): 0.048 absorbance
[13]
  signal-to-noise ratio at the LOQ: 1.3
[14]
  absorbance (450 nm corrected by 540 nm): 0.04 absorbance
[15]
  absorbance (450 nm corrected by 540 nm): 0.046 absorbance
[16]
  absorbance (450 nm corrected by 540 nm): 0.043 absorbance
[17]
  absorbance (450 nm corrected by 540 nm): 0.044 absorbance
[18]
  absorbance (450 nm corrected by 540 nm): 0.044 absorbance
[19]
  absorbance (450 nm corrected by 540 nm): 0.048 absorbance
[20]
  fold sensitivity against clone 12-1: 125 fold
[2]
  binding result: binds
[3]
  binding result: binds
[4]
  binding result: binds
[21]
  association, fold of clone 12-1: ~5 fold
[5]
  signal in ELISA (OD): 0.007 OD 405 nm
[6]
  signal in ELISA (OD): 0.125 OD 405 nm
[7]
  signal in ELISA (OD): 0.014 OD 405 nm
[8]
  signal in ELISA (OD): 1.38 OD 405 nm
[9]
  signal in ELISA (OD): 0.013 OD 405 nm
[22]
  absorbance (450 nm corrected by 540 nm): 0.046 absorbance
[23]
  absorbance (450 nm corrected by 540 nm): 0.048 absorbance
[24]
  absorbance (450 nm corrected by 540 nm): 0.048 absorbance
[25]
  % cross reactivity (against AβpE3-40): < 1%
[26]
  % cross reactivity (against AβpE3-40): < 1%
[27]
  % cross reactivity (against AβpE3-40): < 1%
[28]
  % cross reactivity (against AβpE3-40): < 1%
[29]
  % cross reactivity (against AβpE3-40): < 1%
[30]
  % cross reactivity (against AβpE3-40): < 1%
[31]
  % cross reactivity (against AβpE3-40): < 1%
[32]
  absorbance (450 nm corrected by 540 nm): 0.045 absorbance
[33]
  absorbance (450 nm corrected by 540 nm): 0.048 absorbance
[34]
  absorbance (450 nm corrected by 540 nm): 0.047 absorbance
[35]
  absorbance (450 nm corrected by 540 nm): 0.055 absorbance
[36]
  absorbance (450 nm corrected by 540 nm): 0.047 absorbance
[37]
  absorbance (450 nm corrected by 540 nm): 0.053 absorbance
[38]
  Kd: 1.57 nM
  koff: 0.000263 s⁻¹
  kon: 167000 M⁻¹ s⁻¹
[39]
  absorbance (450 nm corrected by 540 nm): 0.044 absorbance
[40]
  absorbance (450 nm corrected by 540 nm): 0.045 absorbance
[41]
  absorbance (450 nm corrected by 540 nm): 0.05 absorbance

B3: Aβ 24-2-3 (monoclonal antibody of hybridoma cell line 24-2-3, DSM ACC 2926) (antibody, V domains shown)
VH: QVQLQQSGAELVRPGSSVKISCKASGYIFNNYWINWVKQRPGQGLEWIGQIYPGDGDTNYNGKFKGKATLTADKSSSTAYMQLSSLTSEDSAVYFCAREGYIVYWGQGTLVTVSA
VL: not shown
notes: Mouse hybridoma IgG; The entries as printed begin with a leader and end with the first residues of the constant region; Heavy chain amplified with primer MHCG2b, light chain with MKC; Tested as supernatant and as purified antibody; also called clone 24-2-3; N3pE antibody clone 24-2-3
[2]
  binding result: binds
[3]
  binding result: binds
[4]
  binding result: binds
[6]
  signal in ELISA (OD): 0.218 OD 405 nm
[7]
  signal in ELISA (OD): 0.002 OD 405 nm
[8]
  signal in ELISA (OD): 1.77 OD 405 nm
[9]
  signal in ELISA (OD): 0.014 OD 405 nm
[25]
  % cross reactivity (against AβpE3-40): < 1%
[26]
  % cross reactivity (against AβpE3-40): < 1%
[27]
  % cross reactivity (against AβpE3-40): < 1%
[28]
  % cross reactivity (against AβpE3-40): < 1%
[29]
  % cross reactivity (against AβpE3-40): < 1%
[31]
  % cross reactivity (against AβpE3-40): < 1%
[42]
  Kd: 101 nM

B4: Aβ 17-4-3 (monoclonal antibody of hybridoma cell line 17-4-3, DSM ACC 2925) (antibody, V domains shown)
VH: EVKLVESGGGLVQPGGSRKLSCAASGFTFSDYGMAWVRQAPGKGPEWVAFISNLAYSIYYADTVTGRFTISRENAKNTLYLEMSSLRSEDTAMYYCARYDYDNILDYVMDYWGQGTSVTVSS
VL: DVVMTQTPLSLPVSLGDQASISCRSSQSLVHSDGNTYLHWYLQKPGQSPKLLIYKVSNRFSGVPDRFSGSGSGTDFTLKISRVEAEDLGVYFCSQSTHVPPTFGGGTKLEIKR
notes: Mouse hybridoma IgG; The entries as printed begin with a leader and end with the first residues of the constant region; Heavy chain amplified with primer MHCG2b, light chain with MKC; Tested as hybridoma culture supernatant; also called clone 17-4-3; antibody 17-4-3
[1]
  binding result: binds
[2]
  binding result: binds
[3]
  binding result: binds
[4]
  binding result: binds
[5]
  signal in ELISA (OD): 0.003 OD 405 nm
[6]
  signal in ELISA (OD): 0.32 OD 405 nm
[7]
  signal in ELISA (OD): 0.004 OD 405 nm
[8]
  signal in ELISA (OD): 1.92 OD 405 nm
[9]
  signal in ELISA (OD): 0.007 OD 405 nm
